{"source": "IntAct's records for PubMed 15935762", "parents": {"B1": {"name": "Protein pop-1 (Caenorhabditis elegans), Q10666 (parent)", "chain": "MMADEELGDEVKVFRRDEDADDDPMISGETSEQQLADDKKEAVMEAELDGAGRNPSIDVLKSAFPKVEPMSPSFPGLMSHFSPGYSAAALPMFMPLFMNPYAAALRSPSLMFPMGAMSPTFPMFPPSPVYGAAIAAAAAKQHFENMAPLNMRAGHPMNQMGMPPYMHPSSMAPQNVDRRAQGGGKAKKDDHVKKPLNAFMWFMKENRKALLEEIGNNEKQSAELNKELGKRWHDLSKEEQAKYFEMAKKDKETHKERYPEWSARENYAVNKKKTKKRRDKSIPSENNDQKKCRARFGVNNTEMWCKFCKRKKKCEYATDRSGGSDITDSQDGRGTSGAYSSSSESPSPKANAGIALTTQQQQAAMMHTMLMQMRLGSTTGASTHVPSPLASSSAGRSPLDANASDSESDVEEEEDEQIDPTVMQQTHDMLMQESMCTI", "partner": "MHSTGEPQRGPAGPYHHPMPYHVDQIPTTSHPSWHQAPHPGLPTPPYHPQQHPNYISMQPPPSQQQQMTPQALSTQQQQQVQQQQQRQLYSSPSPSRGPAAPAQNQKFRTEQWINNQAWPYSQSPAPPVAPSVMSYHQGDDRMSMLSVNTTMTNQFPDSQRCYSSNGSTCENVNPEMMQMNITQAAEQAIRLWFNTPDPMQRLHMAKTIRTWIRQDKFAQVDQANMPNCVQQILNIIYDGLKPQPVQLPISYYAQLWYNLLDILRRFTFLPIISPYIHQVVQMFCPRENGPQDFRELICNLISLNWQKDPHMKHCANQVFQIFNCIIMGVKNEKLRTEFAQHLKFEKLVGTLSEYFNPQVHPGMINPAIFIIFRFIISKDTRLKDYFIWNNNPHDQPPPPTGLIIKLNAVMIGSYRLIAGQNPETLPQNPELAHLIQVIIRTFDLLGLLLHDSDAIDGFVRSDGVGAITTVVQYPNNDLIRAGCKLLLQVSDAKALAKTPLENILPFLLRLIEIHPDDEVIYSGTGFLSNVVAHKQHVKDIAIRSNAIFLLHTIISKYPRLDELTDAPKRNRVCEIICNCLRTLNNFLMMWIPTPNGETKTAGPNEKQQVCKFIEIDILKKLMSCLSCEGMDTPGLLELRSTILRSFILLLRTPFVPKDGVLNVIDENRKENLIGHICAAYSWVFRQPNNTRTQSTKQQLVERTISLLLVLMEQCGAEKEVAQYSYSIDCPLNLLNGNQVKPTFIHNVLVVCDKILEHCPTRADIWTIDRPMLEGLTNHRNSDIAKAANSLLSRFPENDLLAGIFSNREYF"}, "B2": {"name": "Protein pop-1 (Caenorhabditis elegans), Q10666 (parent)", "chain": "B1 chain", "partner": "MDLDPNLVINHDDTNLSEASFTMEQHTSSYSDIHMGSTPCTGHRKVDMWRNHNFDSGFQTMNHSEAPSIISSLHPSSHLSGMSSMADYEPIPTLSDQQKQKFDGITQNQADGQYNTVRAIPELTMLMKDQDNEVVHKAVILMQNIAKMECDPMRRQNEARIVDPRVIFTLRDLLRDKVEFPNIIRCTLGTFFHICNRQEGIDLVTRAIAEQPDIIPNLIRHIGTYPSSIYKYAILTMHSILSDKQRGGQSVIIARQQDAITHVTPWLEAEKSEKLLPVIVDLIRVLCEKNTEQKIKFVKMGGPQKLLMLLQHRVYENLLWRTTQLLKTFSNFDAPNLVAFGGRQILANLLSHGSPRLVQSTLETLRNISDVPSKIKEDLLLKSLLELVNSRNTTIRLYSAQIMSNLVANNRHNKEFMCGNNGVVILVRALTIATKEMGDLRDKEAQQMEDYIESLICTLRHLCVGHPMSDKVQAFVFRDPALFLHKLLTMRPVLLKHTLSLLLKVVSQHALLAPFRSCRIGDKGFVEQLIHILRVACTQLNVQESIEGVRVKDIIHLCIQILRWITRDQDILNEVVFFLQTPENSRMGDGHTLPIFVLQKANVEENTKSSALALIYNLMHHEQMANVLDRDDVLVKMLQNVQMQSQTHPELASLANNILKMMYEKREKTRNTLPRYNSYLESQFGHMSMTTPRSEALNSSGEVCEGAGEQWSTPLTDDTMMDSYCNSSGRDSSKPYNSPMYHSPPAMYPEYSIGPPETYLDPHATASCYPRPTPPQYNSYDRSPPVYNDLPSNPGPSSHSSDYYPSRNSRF"}}}
{"variants_of": "B1", "settings": "with ctnh1_caeel sys-1, Q9XVI2"}
{"variant": "MMADEELGEEVKVFRRDEDADDDPMISGETSEQQLADDKKEAVMEAELDGAGRNPSIDVLKSAFPKVEPMSPSFPGLMSHFSPGYSAAALPMFMPLFMNPYAAALRSPSLMFPMGAMSPTFPMFPPSPVYGAAIAAAAAKQHFENMAPLNMRAGHPMNQMGMPPYMHPSSMAPQNVDRRAQGGGKAKKDDHVKKPLNAFMWFMKENRKALLEEIGNNEKQSAELNKELGKRWHDLSKEEQAKYFEMAKKDKETHKERYPEWSARENYAVNKKKTKKRRDKSIPSENNDQKKCRARFGVNNTEMWCKFCKRKKKCEYATDRSGGSDITDSQDGRGTSGAYSSSSESPSPKANAGIALTTQQQQAAMMHTMLMQMRLGSTTGASTHVPSPLASSSAGRSPLDANASDSESDVEEEEDEQIDPTVMQQTHDMLMQESMCTI", "note": "[D9E]", "effect of a mutation on the interaction": "disrupting interaction strength"}
{"variants_of": "B2", "settings": "with bar1_caeel bar-1, Q18825"}
{"variant": "MMADEELGEEVKVFRRDEDADDDPMISGETSEQQLADDKKEAVMEAELDGAGRNPSIDVLKSAFPKVEPMSPSFPGLMSHFSPGYSAAALPMFMPLFMNPYAAALRSPSLMFPMGAMSPTFPMFPPSPVYGAAIAAAAAKQHFENMAPLNMRAGHPMNQMGMPPYMHPSSMAPQNVDRRAQGGGKAKKDDHVKKPLNAFMWFMKENRKALLEEIGNNEKQSAELNKELGKRWHDLSKEEQAKYFEMAKKDKETHKERYPEWSARENYAVNKKKTKKRRDKSIPSENNDQKKCRARFGVNNTEMWCKFCKRKKKCEYATDRSGGSDITDSQDGRGTSGAYSSSSESPSPKANAGIALTTQQQQAAMMHTMLMQMRLGSTTGASTHVPSPLASSSAGRSPLDANASDSESDVEEEEDEQIDPTVMQQTHDMLMQESMCTI", "note": "[D9E]", "effect of a mutation on the interaction": "decreasing interaction strength"}
